B1: Dystrobrevin alpha, residues 235 to 294; numbered along this chain, Q9Y4J8 (parent)
chain: ENVFHPVECSYCHSESMMGFRYRCQQCHNYQLCQDCFWRGHAGGSHSNQHQMKEYTSWKS

Variants of: B1
Experiment: abundance fitness (aPCA) (normalised: wild type 0, dead -1); higher = more abundant; growth selection in yeast, the domain comes from the species named
Settings: Homo sapiens

Abundance fitness: each site, then its substitutions
M17: E 0.116, Q -0.019, H 0.116, F -0.002, I 0.045, Y -0.183, A -0.037, C -0.055, K 0.136, G 0.085, D 0.059, N 0.046, P -0.008, S 0.109, W -0.084, V 0.004, T 0.081, R 0.007
S14: Q -0.16, A -0.051, R 0.042, N -0.003, H -0.081, E -0.074, G -0.11, V 0.088, D -0.13, K -0.043, C -0.086, L -0.153, Y -0.324, T -0.026, W -0.416, P -0.679, F -0.622, M -0.149
F20: K 0.31, Q 0.134, H 0.151, C 0.14, G 0.163, T 0.15, I 0.061, A 0.224, D 0.106, N 0.217, W 0.137, Y 0.045, P 0.307, S 0.237, V 0.104, M -0.004
N2: P -0.09, W -0.285, V -0.129, A 0.066, K -0.007, H -0.394, E 0.032, D -0.599, F -0.121, R -0.109, C -0.33, M 0.092, L -0.158, Y -0.035, T 0.049, Q 0.019
V3: E 0.053, A -0.075, K 0.213, C 0.118, W -0.34, L 0.096, I -0.006, R 0.011, D 0.011, M 0.067, Q 0.106, G -0.217, N 0.149, F -0.248, Y 0.018, S 0.134, P 0.083
S16: C -0.092, Q 0.043, F -0.084, Y -0.304, T 0.014, M -0.041, P -0.029, H -0.206, G -0.128, D 0.012, W -0.208, V 0.009, A -0.049, K 0.001, N -0.011, L 0.023, I 0.148, R 0.06, E -0.033
P6: I -0.039, D 0.079, W -0.127, M -0.071, V -0.089, Y -0.218, Q -0.191, E -0.045, F -0.091, A 0.07, G -0.063, L -0.176, C -0.137, N 0.049, R -0.029
E15: T 0.034, S 0.03, K -0.022, W -0.104, P 0.1, M 0.074, R 0.054, I 0.018, A -0.041, N 0.03, H 0.078, Q 0.079, F -0.133, L -0.087, Y -0.23, C -0.171, G -0.105, D 0.195
M18: S 0.133, F 0.126, A 0.199, Q 0.156, N 0.101, Y 0.075, T 0.075, L 0.09, I -0.021, V 0.155, R 0.111, P 0.116, W -0.266, D 0.129, K 0.029, H 0.163, G 0.064, E 0.103, C -0.189
H13: D -0.474, C -0.176, E -0.23, L -0.176, T -0.076, G -0.027, Q -0.172, I -0.406, R -0.061, F -0.243, P -0.677, N -0.169, K -0.027, M -0.109, V -0.457, S -0.096, A -0.107, Y -0.165, W -0.584
C9: W -1.23, E -0.908, M -1.31, S -1.01, V -1.1, P -0.969, F -1.25, K -0.901, Y -1.26, A -1.12, G -0.93, N -1.06, L -1.22, I -1.19, Q -1.05, D -0.904, H -1.26
G19: S 0.089, M -0.167, C -0.191, A 0.176, P 0.018, L -0.134, Y -0.248, I -0.256, H 0.003, E -0.103, D -0.046, N -0.027, T -0.147, F -0.219, V -0.13, Q 0.046, K 0.129
S10: C -0.018, P -0.421, N -0.183, R -0.476, Q -0.453, M -0.298, E -0.394, Y -0.343, I -0.588, F -0.351, K -0.592, G -0.443, T -0.162, L -0.693, V -0.746
C12: V -1.1, E -0.997, A -0.883, Q -1, H -0.549, D -0.939, S -1.17, M -1.11, N -0.746, G -0.762, I -1.1, T -0.868, W -1.27, L -1.22, F -1.23, K -0.943, R -0.768, P -1.29
F4: W -0.224, H -0.059, S -0.14, D 0.108, A -0.049, L -0.039, Q -0.152, Y 0.084, I 0.19, P -0.107, G -0.014, C 0.009, R -0.081, T 0.06, V -0.01, M -0.043, N 0.037
V7: L -0.045, G -0.085, C 0.004, P -0.009, H -0.055, N 0.154, Y -0.161, R -0.036, S 0, I -0.023, M -0.08, T -0.048, D -0.012, F -0.428, A 0.063, W -0.072, K -0.086, E 0.012
E1: K -0.248, P -0.076, S -0.183, T -0.166, Y 0.014, R -0.462, M -0.377, V -0.211
Y11: R -0.37, I -0.191, M -0.055, F 0.039, W -0.155, V -0.193, T -0.201, S -0.219, A -0.208, G -0.099, N -0.256, Q -0.223, C -0.247, P -0.658, D -0.313
E8: M -0.35, Q -0.155, F -0.13, A -0.365, L -0.233, I -0.104, D -0.206, S -0.124, N -0.17, W -0.39, T -0.234, V -0.329, Y -0.157, H -0.049, P -0.001, G 0.051, R -0.222, K -0.214
H5: F -0.201, P -0.102, G -0.127, N 0.259, L -0.125, R -0.176, E 0.145, M -0.114, A -0.195, K -0.028, C -0.024, Q -0.195, W -0.143, I 0.321
R21: A -0.02, C -0.092

Source: the Human Domainome abundance scans (Beltran et al. 2025)
